Assay results taken from the supplement of paper PMC9112550, “Optimization of the antimicrobial peptide Bac7 by deep mutational scanning” (BMC Biology, 2022).

test system: Escherichia coli TOP10; assay: shrunken log2 fold change of peptide-encoding DNA abundance (4.5 h post-induction vs induction); higher = less antimicrobial activity (less host growth inhibition); conditions: time post-induction: 4.5 h; library: site-saturation at positions 5, 18, 19, 20
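Further: peptides expressed intracellularly from a pBAD plasmid library in pooled LB shake-flask culture, induced with 0.3% L-arabinose, DNA abundance read by NGS, three biological replicates, DESeq2 with apeglm shrinkage.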

Sequence	shrunken log2 fold change
RRIRFRPPRLPRPRPRPRMPPRP	0.145
RRIRFRPPRLPRPRPRPRMYPRP	-0.151
RRIRFRPPRLPRPRPRPRNSPRP	0.168
RRIRFRPPRLPRPRPRPRNYPRP	-0.236
RRIRFRPPRLPRPRPRPRPDPRP	0.282
RRIRFRPPRLPRPRPRPRPNPRP	0.4
RRIRFRPPRLPRPRPRPRQKPRP	0.363
RRIRFRPPRLPRPRPRPRQSPRP	0.443
RRIRFRPPRLPRPRPRPRSCPRP	0.155
RRIRFRPPRLPRPRPRPRTAPRP	0.162
RRIRFRPPRLPRPRPRPRTLPRP	0.165
RRIRFRPPRLPRPRPRPRWAPRP	0.305
RRIRFRPPRLPRPRPRPRWCPRP	0.14
RRIRFRPPRLPRPRPRPSACPRP	0.0977
RRIRFRPPRLPRPRPRPSCKPRP	-0.901
RRIRFRPPRLPRPRPRPSCLPRP	-0.502
RRIRFRPPRLPRPRPRPSCQPRP	-0.245
RRIRFRPPRLPRPRPRPSCTPRP	-0.407
RRIRFRPPRLPRPRPRPSDQPRP	-0.302
RRIRFRPPRLPRPRPRPSDYPRP	-0.219
RRIRFRPPRLPRPRPRPSENPRP	-0.458
RRIRFRPPRLPRPRPRPSFEPRP	-0.532
RRIRFRPPRLPRPRPRPSFFPRP	-0.0473
RRIRFRPPRLPRPRPRPSFIPRP	-0.831
RRIRFRPPRLPRPRPRPSFQPRP	-0.145

Sequence	shrunken log2 fold change
RRIRFRPPRLPRPRPRPSGFPRP	-0.207
RRIRFRPPRLPRPRPRPSGPPRP	0.21
RRIRFRPPRLPRPRPRPSHDPRP	-0.142
RRIRFRPPRLPRPRPRPSKGPRP	-0.115
RRIRFRPPRLPRPRPRPSMEPRP	-0.202
RRIRFRPPRLPRPRPRPSPDPRP	-0.0261
RRIRFRPPRLPRPRPRPSPQPRP	0.0415
RRIRFRPPRLPRPRPRPSQNPRP	-0.22
RRIRFRPPRLPRPRPRPSRCPRP	-0.0633
RRIRFRPPRLPRPRPRPSSDPRP	-0.286
RRIRFRPPRLPRPRPRPSSGPRP	-0.0411
RRIRFRPPRLPRPRPRPSTGPRP	-0.787
RRIRFRPPRLPRPRPRPSVDPRP	-0.011
RRIRFRPPRLPRPRPRPSYFPRP	-0.479
RRIRFRPPRLPRPRPRPSYRPRP	-0.783
RRIRFRPPRLPRPRPRPSYWPRP	-0.519
RRIRFRPPRLPRPRPRPTAFPRP	0.0899
RRIRFRPPRLPRPRPRPTAKPRP	0.444
RRIRFRPPRLPRPRPRPTAMPRP	-0.105
RRIRFRPPRLPRPRPRPTASPRP	0.384
RRIRFRPPRLPRPRPRPTAYPRP	-0.243
RRIRFRPPRLPRPRPRPTCAPRP	0.564
RRIRFRPPRLPRPRPRPTCVPRP	-0.0732
RRIRFRPPRLPRPRPRPTDQPRP	-0.0655
RRIRFRPPRLPRPRPRPTDSPRP	-0.0233

Sequence	shrunken log2 fold change
RRIRFRPPRLPRPRPRPTDTPRP	-0.263
RRIRFRPPRLPRPRPRPTECPRP	-0.0986
RRIRFRPPRLPRPRPRPTENPRP	-0.115
RRIRFRPPRLPRPRPRPTFSPRP	-0.0425
RRIRFRPPRLPRPRPRPTGLPRP	-0.118
RRIRFRPPRLPRPRPRPTGRPRP	0.131
RRIRFRPPRLPRPRPRPTPPPRP	0.797
RRIRFRPPRLPRPRPRPTQQPRP	0.312
RRIRFRPPRLPRPRPRPTRSPRP	0.189
RRIRFRPPRLPRPRPRPTSKPRP	-0.191
RRIRFRPPRLPRPRPRPTTPPRP	0.352
RRIRFRPPRLPRPRPRPTTQPRP	0.376
RRIRFRPPRLPRPRPRPTYRPRP	-8.67e-05
RRIRFRPPRLPRPRPRPTYYPRP	-0.421
RRIRFRPPRLPRPRPRPVAEPRP	0.256
RRIRFRPPRLPRPRPRPVALPRP	-0.128
RRIRFRPPRLPRPRPRPVDGPRP	0.148
RRIRFRPPRLPRPRPRPVEEPRP	-0.177
RRIRFRPPRLPRPRPRPVEQPRP	-0.0448
RRIRFRPPRLPRPRPRPVFEPRP	-0.0387
RRIRFRPPRLPRPRPRPVGAPRP	0.472
RRIRFRPPRLPRPRPRPVGIPRP	-0.135
RRIRFRPPRLPRPRPRPVGQPRP	-0.0211
RRIRFRPPRLPRPRPRPVHSPRP	-0.126
RRIRFRPPRLPRPRPRPVIHPRP	-0.182

Sequence	shrunken log2 fold change
RRIRFRPPRLPRPRPRPVLCPRP	-0.221
RRIRFRPPRLPRPRPRPVLHPRP	-0.376
RRIRFRPPRLPRPRPRPVLNPRP	-0.282
RRIRFRPPRLPRPRPRPVLSPRP	-0.0531
RRIRFRPPRLPRPRPRPVMWPRP	0.0942
RRIRFRPPRLPRPRPRPVNIPRP	-0.16
RRIRFRPPRLPRPRPRPVNQPRP	-0.188
RRIRFRPPRLPRPRPRPVQLPRP	-0.189
RRIRFRPPRLPRPRPRPVRVPRP	0.349
RRIRFRPPRLPRPRPRPVSFPRP	-0.414
RRIRFRPPRLPRPRPRPVSWPRP	0.44
RRIRFRPPRLPRPRPRPVTDPRP	0.00378
RRIRFRPPRLPRPRPRPVTSPRP	-0.0369
RRIRFRPPRLPRPRPRPVVEPRP	0.258
RRIRFRPPRLPRPRPRPVVGPRP	0.362
RRIRFRPPRLPRPRPRPVVKPRP	-0.461
RRIRFRPPRLPRPRPRPVVNPRP	-0.026
RRIRFRPPRLPRPRPRPVWCPRP	-0.158
RRIRFRPPRLPRPRPRPVWLPRP	-0.0732
RRIRFRPPRLPRPRPRPVWVPRP	0.0313
RRIRFRPPRLPRPRPRPWEQPRP	-0.00193
RRIRFRPPRLPRPRPRPWFFPRP	-0.393
RRIRFRPPRLPRPRPRPWFQPRP	-0.285
RRIRFRPPRLPRPRPRPWGAPRP	0.0596
RRIRFRPPRLPRPRPRPWINPRP	-0.0461

Sequence	shrunken log2 fold change
RRIRFRPPRLPRPRPRPWISPRP	-0.456
RRIRFRPPRLPRPRPRPWKMPRP	-0.211
RRIRFRPPRLPRPRPRPWKYPRP	-0.411
RRIRFRPPRLPRPRPRPWLEPRP	0.0931
RRIRFRPPRLPRPRPRPWLPPRP	-0.0149
RRIRFRPPRLPRPRPRPWMLPRP	-0.277
RRIRFRPPRLPRPRPRPWPPPRP	1.11
RRIRFRPPRLPRPRPRPWQGPRP	0.00425
RRIRFRPPRLPRPRPRPWRPPRP	0.275
RRIRFRPPRLPRPRPRPWRSPRP	-0.0939
RRIRFRPPRLPRPRPRPWSQPRP	-0.0158
RRIRFRPPRLPRPRPRPWSRPRP	-0.147
RRIRFRPPRLPRPRPRPWWHPRP	-0.334
RRIRFRPPRLPRPRPRPWWIPRP	-0.681
RRIRFRPPRLPRPRPRPWWMPRP	-0.168
RRIRFRPPRLPRPRPRPWWSPRP	-0.18
RRIRFRPPRLPRPRPRPWWTPRP	0.0245
RRIRFRPPRLPRPRPRPYAMPRP	-0.686
RRIRFRPPRLPRPRPRPYAVPRP	-0.419
RRIRFRPPRLPRPRPRPYCHPRP	-0.687
RRIRFRPPRLPRPRPRPYERPRP	-0.119
RRIRFRPPRLPRPRPRPYFIPRP	-1.12
RRIRFRPPRLPRPRPRPYIAPRP	-1.11
RRIRFRPPRLPRPRPRPYILPRP	-1.31
RRIRFRPPRLPRPRPRPYLCPRP	-0.477

Sequence	shrunken log2 fold change
RRIRFRPPRLPRPRPRPYNKPRP	-0.955
RRIRFRPPRLPRPRPRPYNVPRP	-0.138
RRIRFRPPRLPRPRPRPYRAPRP	-0.353
RRIRFRPPRLPRPRPRPYRMPRP	-0.571
RRIRFRPPRLPRPRPRPYRTPRP	-0.165
RRIRFRPPRLPRPRPRPYTEPRP	-0.631
RRIRFRPPRLPRPRPRPYWNPRP	-0.388
RRIRFRPPRLPRPRPRPYYIPRP	-0.794
RRIRGRPPRLPRPRPRPAADPRP	2.21
RRIRGRPPRLPRPRPRPACPPRP	0.46
RRIRGRPPRLPRPRPRPACYPRP	0.896
RRIRGRPPRLPRPRPRPAECPRP	0.196
RRIRGRPPRLPRPRPRPAGDPRP	1.11
RRIRGRPPRLPRPRPRPAGMPRP	0.737
RRIRGRPPRLPRPRPRPAKSPRP	0.492
RRIRGRPPRLPRPRPRPALPPRP	0.696
RRIRGRPPRLPRPRPRPANMPRP	-0.139
RRIRGRPPRLPRPRPRPAQNPRP	0.81
RRIRGRPPRLPRPRPRPAQQPRP	0.57
RRIRGRPPRLPRPRPRPAQSPRP	0.723
RRIRGRPPRLPRPRPRPARIPRP	0.208
RRIRGRPPRLPRPRPRPARPPRP	0.63
RRIRGRPPRLPRPRPRPAVEPRP	1.21
RRIRGRPPRLPRPRPRPAVIPRP	0.232
RRIRGRPPRLPRPRPRPAVKPRP	0.0152
